These results are taken from patent US20260167699A1 (Chugai, published 2026).

The target in assay [1] is T1, FcγRIIIa(V) extracellular domain with C-terminal His tag (human, UniProt P08637 17-208).
T1 construct: extracellular domain; polymorphic form V158; also called FcγRIIIa V type
The assay is described as follows: SPR (Biacore), captured antibody, FcγR analyte, 1:1 Langmuir fit.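 Further: surface plasmon resonance at 25 °C in HBS-EP+ running buffer, antibody captured on sensor chip, FcγR flowed over as analyte in the same buffer.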

The target of assay [2] is T2, FcγRIIIa(F) extracellular domain with C-terminal His tag (human, UniProt P08637 17-208).
T2 construct: extracellular domain; polymorphic form F158; also called FcγRIIIa F type
T2 sequence (P08637 other isoform, or with tags, fused parts or gaps): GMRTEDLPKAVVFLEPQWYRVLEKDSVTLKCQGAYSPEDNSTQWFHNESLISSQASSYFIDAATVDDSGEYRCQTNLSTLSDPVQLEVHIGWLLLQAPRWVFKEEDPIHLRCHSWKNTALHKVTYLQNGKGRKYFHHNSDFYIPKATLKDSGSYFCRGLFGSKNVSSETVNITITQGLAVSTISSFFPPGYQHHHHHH
Described as above.

The target in assay [3] is T3, FcγRIIIa extracellular domain with C-terminal His tag (allotype not given) (human, UniProt P08637 17-208).
T3 construct: extracellular domain; also called 3a
The assay is described as follows: SPR; KD of GpH7-A5/GpH7-B3/GpL16-k0 for FcγRIIIa divided by KD of this antibody. (In general: In SPR one partner is held on a chip, and binding of the other changes the refractive index at the surface.)

For assay [4], the target named is T3, FcγRIIIa extracellular domain with …. The assay is described as follows: SPR; KD of GpH7-G1d/GpL16-k0 for FcγRIIIa divided by KD of this antibody.
Description: (§1) The antibody of interest was analyzed for its interaction with FcγR using a BiaCore™ T100, BiaCore™ A100, or BiaCore™ 4000 surface plasmon resonance system (GE Healthcare Japan Corp.). The running buffer used was HBS-EP+ (GE Healthcare Japan Corp.). The assay temperature was set to 25° C. The sensor chips used were: a chip prepared by immobilizing antigenic peptides onto Series S Sensor Chip CM5 (GE Healthcare Japan Corp.) by the amine coupling method; a chip prepared by immobilizing antigenic peptides biotinylated in advance onto Series S Sensor Chip SA (certified) (GE Healthcare Japan Corp.) through their interaction; a chip prepared by immobilizing protein L (ACTIGEN, BioVision, Inc.) onto Series S Sensor Chip CM5 (GE Healthcare Japan Corp.); and a chip prepared by immobilizing protein A/G (Thermo Fisher Scientific K.K.) onto Series S Sensor Chip CM5 (GE Healthcare Japan Corp.). The antibody of interest was captured onto any of these chips and allowed to interact with FcγR diluted with a running buffer. The antibody captured on the chip was washed off through the reaction of 10 mM glycine-HCl (pH 1.5) to regenerate the chip, which was repetitively used.
Assay [5] has the same target. The assay is described as follows: SPR (Biacore), captured antibody, FcγRIIIa analyte, 1:1 Langmuir fit.
Description: as §1

T1 sequence (P08637 other isoform, or with tags, fused parts or gaps): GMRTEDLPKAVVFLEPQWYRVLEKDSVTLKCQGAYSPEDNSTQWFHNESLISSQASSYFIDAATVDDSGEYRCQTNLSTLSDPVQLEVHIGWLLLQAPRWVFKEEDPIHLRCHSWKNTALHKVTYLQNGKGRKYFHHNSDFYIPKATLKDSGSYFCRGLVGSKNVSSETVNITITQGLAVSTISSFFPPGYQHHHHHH

B1: H240-Kn132/H240-Hl071/L73-k0 (antibody, human IgG1, kappa)
heavy 1: QDQLVQSGAEVKKPGASVKVSCKASGFNIKDTYIQWVRQAPGQGLEWMGRIDPLRKQTKYREKFEGRVTITADTSTNTAYMELSSLRSEDTAVYYCVRSGREFDYWGQGTLVTVSSASTKGPSVFPLAPSSKSTSGGTAALGCLVKDYFPEPVTVSWNSGALTSGVHTFPAVLQSSGLYSLSSVVTVPSSSLGTQTYICNVNHKPSNTKVDKKVEPKSCDKTHTCPPCPAPELLGGPSVFLFPPKPKDTLMISRTPEVTCVVVDVSHEDPEVKFNWYVDGVEVHNAKTKPREEQYNSTYRVVSVLTVLHQDWLNGKEYKCKVSNDALPMPIEETISKAKGQPREPQVCTLPPSRDELTKNQVSLWCLVKGFYPSDIAVEWESNGQPENNYKTTPPVLDSDGSFFLYSKLTVDKSRWQQGNVFSCSVMHEALHNHYTQKSLSLSP
heavy 2: QDQLVQSGAEVKKPGASVKVSCKASGFNIKDTYIQWVRQAPGQGLEWMGRIDPLRKQTKYREKFEGRVTITADTSTNTAYMELSSLRSEDTAVYYCVRSGREFDYWGQGTLVTVSSASTKGPSVFPLAPSSKSTSGGTAALGCLVKDYFPEPVTVSWNSGALTSGVHTFPAVLQSSGLYSLSSVVTVPSSSLGTQTYICNVNHKPSNTKVDKKVEPKSCDKTHTCPPCPAPELLGGPSVFLFPPKPKDTLMISRTPEVTCVVVDVSHEDPEVKFNWYVDGVEVHNAKTKPREEQYNSTYRVVSVLTVLHQDWLNGKEYKCKVSNDALPMPIEETISKAKGQPREPQVYTLPPSRCELTKNQVSLSCAVKGFYPSDIAVEWESNGQPENNYKTTPPVLDSDGSFFLVSKLTVDKSRWQQGNVFSCSVMHEALHNHYTQKSLSLSP
light: DIQMTQSPSSLSASVGDRVTITCRASQDIHKYIAWYQQKPGQAPRLLIQYTSTLQPGVPSRFSGSGSGTDYTFTISSLQPEDIATYYCLQYEQLRTFGGGTKVEIKRTVAAPSVFIFPPSDEQLKSGTASVVCLLNNFYPREAKVQWKVDNALQSGNSQESVTEQDSKDSTYSLSSTLTLSKADYEKHKVYACEVTHQGLSSPVTKSFNRGEC
notes: anti-epiregulin IgG1 called homodimerized: K326D/A330M/K334E in both H chains; also called H240-Kn132/H240-HI071/L73-k0
For the molecule B1, the Kd came out at 16 nM in assay [1] and 77 nM in assay [2].

B2: GpH7-A5/GpH7-B78/GpL16-k0 (antibody, human IgG1, kappa)
heavy 1: not shown
heavy 2: QVQLVQSGAEVKKPGASVTVSCKASGYTFTDYEMHWIRQPPGEGLEWIGAIDPKTGDTAYSESFQDRVTLTADKSTSTAYMELSSLTSEDTAVYYCTRFYSYTYWGQGTLVTVSSASTKGPSVFPLAPSSKSTSGGTAALGCLVKDYFPEPVTVSWNSGALTSGVHTFPAVLQSSGLYSLSSVVTVPSSSLGTQTYICNVNHKPSNTKVDKKVEPKSCDKTHTCPPCPAPELLGGPDVFLFPPKPKDTLMISRTPEVTCVVVDVSHEDPEVKFNWYVDGVEVHNAKTKPREEQYNSTYRVVSVLTVLHQDWLNGKEYKCKVSNKALPLPEEKTISKAKGQPREPQVYTLPPSRDELTKNQVSLTCLVKGFYPSDIAVEWESNGQPENNYKTTPPVLDSDGSFFLYSKLTVDKSRWQQGNVFSCSVMHEALHNHYTQESLSLSP
light: DIVMTQSPLSLPVTPGEPASISCQASESLVHSNRNTYLHWYLQKPGQSPQLLIYKVSNRFSGVPDRFSGSGSGTDFTLKISRVEAEDVGVYYCSQNTHVPPTFGQGTKVEIERTVAAPSVFIFPPSDEQLKSGTASVVCLLNNFYPREAKVQWKVDNALQSGNSQESVTEQDSKDSTYSLSSTLTLSKADYEKHKVYACEVTHQGLSSPVTKSFNRGEC
notes: heterodimerized anti-glypican 3 IgG1; S239D/A330L/I332E in one H chain
For B2, the “KD ratio2” value in assay [3] turned out to be 30 fold. For the same molecule, in assay [4], the “KD ratio1” value is 23 fold. In assay [5], this molecule came in with a Kd of 54 nM.

B3: GpH7-A57/GpH7-B78/GpL16-k0 (antibody, human IgG1, kappa)
heavy 1: QVQLVQSGAEVKKPGASVTVSCKASGYTFTDYEMHWIRQPPGEGLEWIGAIDPKTGDTAYSESFQDRVTLTADKSTSTAYMELSSLTSEDTAVYYCTRFYSYTYWGQGTLVTVSSASTKGPSVFPLAPSSKSTSGGTAALGCLVKDYFPEPVTVSWNSGALTSGVHTFPAVLQSSGLYSLSSVVTVPSSSLGTQTYICNVNHKPSNTKVDKKVEPKSCDKTHTCPPCPAPELLGGPDVFLFPPKPKDTLMISRTPEVTCVVVDVSHEDPEVKFNWYVDGVEVHNAKTKPREEQYNSTYRVVSVLTVLHQDWLNGKEYKCKVSNKALPLPEEKTISKAKGQPREPQVYTLPPSRKELTKNQVSLTCLVKGFYPSDIAVEWESNGQPENNYKTTPPVLDSDGSFFLYSKLTVDKSRWQQGNVFSCSVMHEALHNRYTQKSLSLSP
heavy 2: QVQLVQSGAEVKKPGASVTVSCKASGYTFTDYEMHWIRQPPGEGLEWIGAIDPKTGDTAYSESFQDRVTLTADKSTSTAYMELSSLTSEDTAVYYCTRFYSYTYWGQGTLVTVSSASTKGPSVFPLAPSSKSTSGGTAALGCLVKDYFPEPVTVSWNSGALTSGVHTFPAVLQSSGLYSLSSVVTVPSSSLGTQTYICNVNHKPSNTKVDKKVEPKSCDKTHTCPPCPAPELLGGPDVFLFPPKPKDTLMISRTPEVTCVVVDVSHEDPEVKFNWYVDGVEVHNAKTKPREEQYNSTYRVVSVLTVLHQDWLNGKEYKCKVSNKALPLPEEKTISKAKGQPREPQVYTLPPSRDELTKNQVSLTCLVKGFYPSDIAVEWESNGQPENNYKTTPPVLDSDGSFFLYSKLTVDKSRWQQGNVFSCSVMHEALHNHYTQESLSLSP
light: DIVMTQSPLSLPVTPGEPASISCQASESLVHSNRNTYLHWYLQKPGQSPQLLIYKVSNRFSGVPDRFSGSGSGTDFTLKISRVEAEDVGVYYCSQNTHVPPTFGQGTKVEIERTVAAPSVFIFPPSDEQLKSGTASVVCLLNNFYPREAKVQWKVDNALQSGNSQESVTEQDSKDSTYSLSSTLTLSKADYEKHKVYACEVTHQGLSSPVTKSFNRGEC
notes: anti-glypican 3 IgG1 called homodimerized: S239D/A330L/I332E in both H chains
As for B3, the “KD ratio2” value in assay [3] was found to be 263 fold. In assay [4], the “KD ratio1” value amounted to 199 fold. Also, binding in assay [5] was put at a Kd of 6.2 nM.

B4: GpH7-TA7/GpH7-B3/GpL16-k0 (antibody, human IgG1, kappa)
heavy 1: QVQLVQSGAEVKKPGASVTVSCKASGYTFTDYEMHWIRQPPGEGLEWIGAIDPKTGDTAYSESFQDRVTLTADKSTSTAYMELSSLTSEDTAVYYCTRFYSYTYWGQGTLVTVSSASTKGPSVFPLAPSSKSTSGGTAALGCLVKDYFPEPVTVSWNSGALTSGVHTFPAVLQSSGLYSLSSVVTVPSSSLGTQTYICNVNHKPSNTKVDKKVEPKSCDKTHTCPPCPAPEYLWGPSVFLFPPKPKDTLMISRTPEVTCVVVDVSHEDPEVKFNWYVDGVEVHNAKTKPREEQYNATYRVVSVLTVLHQDWLNGKEYKCKVSNKALPAPIEKTISKAKGQPREPQVYTLPPSRKELTKNQVSLTCLVKGFYPSDIAVEWESNGQPENNYKTTPPVLDSDGSFFLYSKLTVDKSRWQQGNVFSCSVMHEALHNRYTQKSLSLSP
heavy 2: not shown
light: DIVMTQSPLSLPVTPGEPASISCQASESLVHSNRNTYLHWYLQKPGQSPQLLIYKVSNRFSGVPDRFSGSGSGTDFTLKISRVEAEDVGVYYCSQNTHVPPTFGQGTKVEIERTVAAPSVFIFPPSDEQLKSGTASVVCLLNNFYPREAKVQWKVDNALQSGNSQESVTEQDSKDSTYSLSSTLTLSKADYEKHKVYACEVTHQGLSSPVTKSFNRGEC
notes: heterodimerized anti-glypican 3 IgG1; L234Y/G236W/S298A in one H chain
Consider B4, for which the “KD ratio2” value in assay [3] was 5.1 fold. In assay [4], the “KD ratio1” value turned out to be 3.8 fold. The same molecule had an equilibrium dissociation constant (Kd) in assay [5] of 320 nM.

Usually Kd stands for the free concentration of one partner at which half of the binding sites on the other are occupied at equilibrium, for simple one-to-one binding. Lower therefore signals higher affinity.
